The results in this text go back to the Immune Epitope Database (IEDB).

In one test the target is HLA-A*02:01. The test can be described thus: IEDB peptide-MHC binding, purified MHC/direct/fluorescence; filed as Kd, often an IC50 or EC50 that approximates it; ≥ and ≤ were set here for values at or beyond the usual limits of such assays. The settings on record: source organism: Mammarenavirus juninense.
Another test has as its target HLA-C*03:03. Described as above.
Another test deals with HLA-B*15:42. The test can be described thus: IEDB peptide-MHC binding, purified MHC/competitive/fluorescence; filed as Kd, often an IC50 or EC50 that approximates it; ≥ and ≤ were set here for values at or beyond the usual limits of such assays.
In the next test the target is HLA-B*27:20. The test is described as above. The settings on record: source organism: Mammarenavirus juninense.
For the next test, the target named is HLA-A*32:07. Described as above. To be noted: source organism: Mammarenavirus juninense.
For a further test, the target named is HLA-B*45:06. Described as above.
In another test the target is HLA-A*32:15. The test is described as above.
For the next test, the target named is HLA-C*08:02. The test can be described thus: IEDB peptide-MHC binding, purified MHC/direct/fluorescence; filed as Kd, often an IC50 or EC50 that approximates it; ≥ and ≤ were set here for values at or beyond the usual limits of such assays. The settings on record: source organism: Pan troglodytes.
The next test has as its target HLA-B*83:01. The test can be described thus: IEDB peptide-MHC binding, purified MHC/competitive/fluorescence; filed as Kd, often an IC50 or EC50 that approximates it; ≥ and ≤ were set here for values at or beyond the usual limits of such assays.
Test [1] deals with HLA-C*14:02. Described as above.
A further test has as its target HLA-C*06:02. The test can be described thus: IEDB peptide-MHC binding, purified MHC/direct/fluorescence; filed as Kd, often an IC50 or EC50 that approximates it; ≥ and ≤ were set here for values at or beyond the usual limits of such assays.
A further test has as its target HLA-C*12:03. Described as above. To be noted: source organism: Brucella abortus S19.
A further test concerns the target HLA-C*15:02. The description is as above.
The target of the next test is HLA-B*15:02. The test can be described thus: IEDB peptide-MHC binding, purified MHC/competitive/fluorescence; filed as Kd, often an IC50 or EC50 that approximates it; ≥ and ≤ were set here for values at or beyond the usual limits of such assays. To be noted: source organism: Brucella abortus S19.
In another test the target is HLA-B*46:01. The test is described as above. To be noted: source organism: Brucella abortus S19.
Test [2] deals with HLA-C*14:02. The test can be described thus: IEDB peptide-MHC binding, purified MHC/direct/fluorescence; filed as Kd, often an IC50 or EC50 that approximates it; ≥ and ≤ were set here for values at or beyond the usual limits of such assays. To be noted: source organism: Campylobacter jejuni.
Another test has as its target HLA-A*26:01. Described as above. The settings on record: source organism: Campylobacter jejuni subsp. jejuni 81116.
The mark [3] stands for this setting: source organism: Mammarenavirus juninense.
The mark [4] stands for this setting: source organism: Pan troglodytes.
Setting [5] is: source organism: Brucella abortus S19.
Setting [6] is: source organism: Campylobacter jejuni.

With KLMDVVYSI, the dissociation constant Kd is 0.9 nM with HLA-A*02:01; ≥ 20000 nM in the test with HLA-C*03:03 (setting [3]); ≥ 5000 nM with HLA-B*15:42 (setting [3]); 17.9 nM in the test with HLA-B*27:20; 2.1 nM in the test with HLA-A*32:07; ≥ 5000 nM with HLA-B*45:06 (setting [3]). The Kd in the test with HLA-A*32:15 (setting [3]) came to 55.6 nM.

In the case of VMPPRTLLL, the Kd was ≥ 20000 nM with HLA-C*08:02; ≥ 20000 nM in the test with HLA-C*03:03 (setting [4]); ≥ 5000 nM with HLA-B*83:01 (setting [4]); 76.8 nM with HLA-C*14:02 [1] (setting [4]); ≥ 5000 nM with HLA-B*15:42 (setting [4]); ≥ 5000 nM with HLA-B*45:06 (setting [4]).

For the sequence YMRERLSDF, the Kd with HLA-C*06:02 (setting [5]) was 112 nM; with HLA-C*12:03, 94 nM; with HLA-C*15:02 (setting [5]) it was ≥ 20000 nM; with HLA-B*83:01 (setting [5]), ≥ 5000 nM; with HLA-C*14:02 [1] (setting [5]) it was 18 nM; with HLA-B*15:42 (setting [5]) it was ≥ 5000 nM. Also, the Kd is ≥ 5000 nM with HLA-B*45:06 (setting [5]), 235 nM in the test with HLA-B*15:02 and 30.6 nM in the test with HLA-B*46:01.

Take YTKKYLLSF: the equilibrium dissociation constant (Kd) was 2050 nM in the test with HLA-C*14:02 [2]; ≥ 20000 nM with HLA-C*06:02 (setting [6]); 5000 nM in the test with HLA-C*15:02 (setting [6]); 2 nM with HLA-A*26:01; ≥ 5000 nM with HLA-B*83:01 (setting [6]); ≥ 5000 nM in the test with HLA-B*15:42 (setting [6]). The Kd with HLA-B*45:06 (setting [6]) is ≥ 5000 nM; with HLA-A*32:15 (setting [6]), 235 nM.

The term Kd denotes the concentration at which binding is half-saturated. Higher therefore signals lower affinity.
